Substrate in the data set: O=Cc1ccc([N+](=O)[O-])cc1
Nature of the data set: purified protein. The conditions noted are these: nitromethane 1 M (excess), 3-18 mM aldehyde, 0.3 mg/mL enzyme, 40 °C, 5 min.

Description: Henry reaction, product by HPLC, Michaelis-Menten fit on LmrR (Lactococcal multidrug resistance Regulator)

B1: LmrR (Lactococcal multidrug resistance Regulator) (Lactococcus cremoris subsp. cremoris MG1363) (protein)
chain: MAEIPKEMLRAQTNVILLNVLKQGDNYVYGIIKQVKEASNGEMELNEATLYTIFKRLEKDGIISSYWGDESQGGRRKYYRLTEIGHENMRLAFESWSRVDKIIENLEANKKSEAIK
For the protein B1, the Km is 9.30 mM, the Vmax worked out at 1290 µM/min, the turnover number (kcat) is 0.967 s⁻¹ and the specificity constant (kcat/Km) stood at 104 M⁻¹ s⁻¹.

For orientation: Km means the substrate concentration at which the rate is half of its maximum. For orientation: Vmax means the rate approached at saturating substrate. A word on the kcat: it is the maximal rate divided by the concentration of active sites. For orientation: kcat/Km means the turnover number divided by the Michaelis constant.

The values are drawn from paper PMC10992053, “Rationally introducing non-canonical amino acids to enhance catalytic activity of LmrR for Henry reaction” (Bioresources and Bioprocessing, 2024).
